# Experimental data published in PMC12661054, “The CIP2A-TOPBP1 axis facilitates mitotic DNA repair via MiDAS and MMEJ” (Nature Communications, 2025).
# Square brackets hold non-standard residues; d marks the D form. Ends that are not written are not given here. fluorescein = fluorescein label on the N-terminus; pT = C[C@@H](OP(=O)(O)O)[C@H](N)C(=O)O
# B1: Flu-SLX4_pT1260 (peptide)
# peptide: fluorescein-GYGTSWLVPA[pT]PLASRSR
# modifications: also: phosphothreonine at Thr1260 (position 4 or 11)
# notes: residues before the SLX4 stretch, not SLX4; SLX4, human, amino acids 1253-1267, pT1260; also called fluorescein tagged SLX4 pT1260-containing peptide; pThr1260 SLX4 peptide; source: synthetic peptide
# Target: T1, GST-TOPBP1(BRCT0-2 1-290) K250E (human, UniProt Q92547 1-290, K250E)
# T1 construct: TOPBP1, human, residues 1-290 (BRCT0-2); purified as the wild type; no cleavage of GST described; also called BRCT 2 (K250E); source: E. coli BL21(DE3), purified (HiTrap GST, Superdex 200)
# Assay: fluorescence polarisation; 100 nM fluorescein-labelled SLX4 peptide, increasing concentrations of TOPBP1 BRCT fragment; room temperature; 25 mM HEPES pH 7.5, 150 mM NaCl, 1 mM EDTA, 0.25 mM TCEP, 0.002% Tween 20; single site with non-specific component
# Conditions: both partners purified
binder,measurement,value
B1,binding result,binds
